The values that follow come from patent publication US20220204643A1 (published 2022).

Common to all, as to experiment: protein array
The target of experiment [1] is T1, interleukin 27 receptor subunit alpha (human, UniProt Q6UWB1 33-636).
T1 construct: on protein array; also called IL27RA
T1 sequence: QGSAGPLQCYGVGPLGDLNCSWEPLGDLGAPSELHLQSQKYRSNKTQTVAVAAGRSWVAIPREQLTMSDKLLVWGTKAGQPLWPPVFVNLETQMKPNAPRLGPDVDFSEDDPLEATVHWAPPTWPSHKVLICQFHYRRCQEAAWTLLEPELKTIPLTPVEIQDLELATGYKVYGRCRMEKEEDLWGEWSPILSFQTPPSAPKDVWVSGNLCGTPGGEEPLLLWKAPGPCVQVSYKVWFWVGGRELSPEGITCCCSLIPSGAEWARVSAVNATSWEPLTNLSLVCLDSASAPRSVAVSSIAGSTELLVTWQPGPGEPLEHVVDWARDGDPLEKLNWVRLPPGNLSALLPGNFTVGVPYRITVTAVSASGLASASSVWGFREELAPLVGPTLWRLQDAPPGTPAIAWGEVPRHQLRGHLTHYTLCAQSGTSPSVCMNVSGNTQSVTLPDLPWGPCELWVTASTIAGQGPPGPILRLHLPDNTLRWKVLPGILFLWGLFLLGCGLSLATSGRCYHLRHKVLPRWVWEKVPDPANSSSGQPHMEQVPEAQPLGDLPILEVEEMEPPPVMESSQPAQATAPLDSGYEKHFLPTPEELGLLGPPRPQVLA

Experiment [2] concerns the target T2, zinc finger protein 431, transcript variant 2 (human, UniProt Q8TF32 1-576).
T2 construct: on protein array; also called ZNF431

Experiment [3] deals with T3, nudix hydrolase 21 (human, UniProt O43809 2-227).
T3 construct: on protein array; also called NUDT21

Experiment [4] addresses T4, Zinc finger protein 699 (human, UniProt Q32M78 1-642).
T4 construct: on protein array; also called ZNF699

The target in experiment [5] is T5, 5-hydroxytryptamine receptor 1E (human, UniProt P28566 1-365).
T5 construct: on protein array; also called HTR1E

Experiment [6] addresses T6, microtubule associated protein RP/EB family member 2, transcript variant 1 (human, UniProt Q15555 1-327).
T6 construct: on protein array; also called MAPRE2

The target of experiment [7] is T7, microfibril associated protein 3, transcript variant 3 (human, UniProt P55082 19-362).
T7 construct: on protein array; also called MFAP3

Experiment [8] deals with T8, enolase 2 (human, UniProt P09104 2-434).
T8 construct: on protein array; also called ENO2

The target of experiment [9] is T9, keratin associated protein 12-3 (human, UniProt P60328 1-96).
T9 construct: on protein array; also called KRTAP12-3
T9 sequence: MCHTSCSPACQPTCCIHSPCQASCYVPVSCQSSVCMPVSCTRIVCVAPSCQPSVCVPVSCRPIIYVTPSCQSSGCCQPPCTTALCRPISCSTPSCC

For experiment [10], the target named is T10, PAGE family member 2 (human, UniProt Q7Z2X7 1-111).
T10 construct: on protein array; also called PAGE2
T10 sequence: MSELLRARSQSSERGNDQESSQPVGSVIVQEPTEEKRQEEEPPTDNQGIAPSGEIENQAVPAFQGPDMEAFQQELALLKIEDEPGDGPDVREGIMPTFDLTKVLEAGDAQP

The target in experiment [11] is T11, serpin family B member 6, transcript variant 2 (human, UniProt P35237 1-376).
T11 construct: on protein array; also called SERPINB6
T11 sequence: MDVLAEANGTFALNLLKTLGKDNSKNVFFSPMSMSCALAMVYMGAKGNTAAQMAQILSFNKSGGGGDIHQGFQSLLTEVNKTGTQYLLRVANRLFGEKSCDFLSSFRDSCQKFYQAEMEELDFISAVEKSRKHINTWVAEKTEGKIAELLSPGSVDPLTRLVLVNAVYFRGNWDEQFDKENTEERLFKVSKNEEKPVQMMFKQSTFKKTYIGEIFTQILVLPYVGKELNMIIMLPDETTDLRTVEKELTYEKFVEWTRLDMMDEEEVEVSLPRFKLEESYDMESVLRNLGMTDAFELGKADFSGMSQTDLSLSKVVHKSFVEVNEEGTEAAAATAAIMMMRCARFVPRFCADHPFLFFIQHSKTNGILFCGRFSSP

Experiment [12] concerns the target T12, Dpy-30 histone methyltransferase complex regulatory subunit (human, UniProt Q9C005 1-99).
T12 construct: on protein array

Experiment [13] has as its target T13, rhophilin associated tail protein 1 like, transcript variant 2 (human, UniProt Q96C74 1-230).
T13 construct: on protein array; also called ROPN1L
T13 sequence: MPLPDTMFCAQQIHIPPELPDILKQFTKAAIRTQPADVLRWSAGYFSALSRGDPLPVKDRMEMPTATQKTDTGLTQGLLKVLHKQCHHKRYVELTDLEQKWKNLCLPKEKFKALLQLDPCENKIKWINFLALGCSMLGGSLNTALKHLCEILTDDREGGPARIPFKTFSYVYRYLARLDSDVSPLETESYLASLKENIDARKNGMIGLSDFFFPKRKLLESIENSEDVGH

Experiment [14] addresses T14, Jupiter microtubule associated homolog 2 (human, UniProt Q9H910 1-190).
T14 construct: on protein array; also called HN1L
T14 sequence: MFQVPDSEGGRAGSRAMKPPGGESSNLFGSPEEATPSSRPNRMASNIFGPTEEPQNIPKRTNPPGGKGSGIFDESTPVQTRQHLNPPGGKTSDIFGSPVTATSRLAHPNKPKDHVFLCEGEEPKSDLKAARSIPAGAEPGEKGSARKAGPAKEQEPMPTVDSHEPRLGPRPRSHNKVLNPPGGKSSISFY

The target in experiment [15] is T15, BTB domain containing 8 (human, UniProt Q5XKL5 1-374, limits assumed).
T15 construct: on protein array; also called BTBD8

For experiment [16], the target named is T16, Src like adaptor, transcript variant 1 (human, UniProt Q13239 2-276).
T16 construct: on protein array; also called SLA
T16 sequence: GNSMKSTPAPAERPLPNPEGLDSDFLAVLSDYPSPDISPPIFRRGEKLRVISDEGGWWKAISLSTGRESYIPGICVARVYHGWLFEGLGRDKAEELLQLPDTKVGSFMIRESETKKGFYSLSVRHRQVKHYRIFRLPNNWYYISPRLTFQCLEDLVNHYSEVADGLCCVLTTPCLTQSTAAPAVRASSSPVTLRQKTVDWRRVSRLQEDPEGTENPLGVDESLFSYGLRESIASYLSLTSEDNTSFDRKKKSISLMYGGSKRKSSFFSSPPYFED

In experiment [17] the target is T17, proteasome 26S subunit, non-ATPase 4, transcript variant 2 (human, UniProt P55036 1-377).
T17 construct: on protein array; also called PSMD4
T17 sequence (P55036 whole entry, change not shown): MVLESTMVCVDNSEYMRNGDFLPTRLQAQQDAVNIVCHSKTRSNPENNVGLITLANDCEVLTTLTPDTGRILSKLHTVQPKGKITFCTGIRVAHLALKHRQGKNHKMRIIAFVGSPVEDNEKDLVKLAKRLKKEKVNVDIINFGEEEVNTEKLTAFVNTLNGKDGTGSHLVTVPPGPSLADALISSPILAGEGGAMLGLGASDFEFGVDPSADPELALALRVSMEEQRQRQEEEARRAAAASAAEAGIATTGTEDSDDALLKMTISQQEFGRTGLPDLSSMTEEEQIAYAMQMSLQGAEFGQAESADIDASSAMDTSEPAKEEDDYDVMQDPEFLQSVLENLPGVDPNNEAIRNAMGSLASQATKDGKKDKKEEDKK

T5 sequence (P28566 whole entry): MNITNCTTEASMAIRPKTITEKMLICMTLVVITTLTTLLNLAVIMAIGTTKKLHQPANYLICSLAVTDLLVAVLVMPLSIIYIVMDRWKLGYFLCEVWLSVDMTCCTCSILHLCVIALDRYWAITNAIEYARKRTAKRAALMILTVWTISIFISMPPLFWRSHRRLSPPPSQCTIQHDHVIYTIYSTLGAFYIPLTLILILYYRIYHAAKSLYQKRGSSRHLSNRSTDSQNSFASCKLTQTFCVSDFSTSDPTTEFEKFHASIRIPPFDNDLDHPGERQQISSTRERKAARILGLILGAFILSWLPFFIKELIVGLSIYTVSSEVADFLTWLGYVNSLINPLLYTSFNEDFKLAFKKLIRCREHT
T12 sequence (Q9C005 whole entry, one chain of several): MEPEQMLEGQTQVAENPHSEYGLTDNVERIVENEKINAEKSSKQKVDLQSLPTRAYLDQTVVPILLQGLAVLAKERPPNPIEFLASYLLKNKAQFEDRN
T8 sequence (P09104 2-434 limits assumed): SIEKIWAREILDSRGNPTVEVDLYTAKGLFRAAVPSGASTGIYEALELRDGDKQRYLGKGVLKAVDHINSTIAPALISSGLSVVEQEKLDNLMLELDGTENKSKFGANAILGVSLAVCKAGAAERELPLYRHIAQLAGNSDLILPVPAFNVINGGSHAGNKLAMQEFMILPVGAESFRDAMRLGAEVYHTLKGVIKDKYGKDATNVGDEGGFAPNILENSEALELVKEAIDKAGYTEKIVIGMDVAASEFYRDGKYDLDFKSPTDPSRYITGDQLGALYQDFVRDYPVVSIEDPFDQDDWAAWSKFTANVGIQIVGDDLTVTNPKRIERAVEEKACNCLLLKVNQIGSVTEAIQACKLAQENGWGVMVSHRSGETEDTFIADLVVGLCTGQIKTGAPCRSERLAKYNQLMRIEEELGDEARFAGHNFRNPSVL
T4 sequence (Q32M78 whole entry): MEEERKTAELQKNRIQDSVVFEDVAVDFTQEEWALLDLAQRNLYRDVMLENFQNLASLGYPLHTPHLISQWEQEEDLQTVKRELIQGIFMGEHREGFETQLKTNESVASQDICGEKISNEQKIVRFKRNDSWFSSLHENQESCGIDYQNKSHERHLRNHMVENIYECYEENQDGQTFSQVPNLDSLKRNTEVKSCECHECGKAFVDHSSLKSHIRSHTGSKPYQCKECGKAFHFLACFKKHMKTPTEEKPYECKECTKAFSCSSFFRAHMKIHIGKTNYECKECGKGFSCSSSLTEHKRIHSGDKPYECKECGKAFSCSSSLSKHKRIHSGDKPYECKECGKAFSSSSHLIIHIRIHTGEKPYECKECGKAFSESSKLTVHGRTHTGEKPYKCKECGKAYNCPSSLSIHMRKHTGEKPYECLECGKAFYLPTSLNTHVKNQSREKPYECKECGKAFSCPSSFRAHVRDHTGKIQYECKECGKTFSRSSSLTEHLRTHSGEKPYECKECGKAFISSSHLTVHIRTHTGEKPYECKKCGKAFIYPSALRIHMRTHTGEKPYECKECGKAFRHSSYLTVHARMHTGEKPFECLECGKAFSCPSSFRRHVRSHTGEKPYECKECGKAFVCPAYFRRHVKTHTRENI
T15 sequence (Q5XKL5 other isoform, or with tags, fused parts or gaps limits assumed): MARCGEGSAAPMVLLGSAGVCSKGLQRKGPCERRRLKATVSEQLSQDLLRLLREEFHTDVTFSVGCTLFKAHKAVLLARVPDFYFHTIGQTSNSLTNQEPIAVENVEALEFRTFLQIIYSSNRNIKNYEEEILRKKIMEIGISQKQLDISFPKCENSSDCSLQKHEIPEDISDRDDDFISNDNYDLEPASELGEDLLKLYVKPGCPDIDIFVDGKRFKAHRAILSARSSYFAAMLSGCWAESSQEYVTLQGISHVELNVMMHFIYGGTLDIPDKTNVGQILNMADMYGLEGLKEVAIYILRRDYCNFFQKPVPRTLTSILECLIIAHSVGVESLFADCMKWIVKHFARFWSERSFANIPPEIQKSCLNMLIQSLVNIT
T2 sequence (Q8TF32 other isoform, or with tags, fused parts or gaps mutant limits assumed): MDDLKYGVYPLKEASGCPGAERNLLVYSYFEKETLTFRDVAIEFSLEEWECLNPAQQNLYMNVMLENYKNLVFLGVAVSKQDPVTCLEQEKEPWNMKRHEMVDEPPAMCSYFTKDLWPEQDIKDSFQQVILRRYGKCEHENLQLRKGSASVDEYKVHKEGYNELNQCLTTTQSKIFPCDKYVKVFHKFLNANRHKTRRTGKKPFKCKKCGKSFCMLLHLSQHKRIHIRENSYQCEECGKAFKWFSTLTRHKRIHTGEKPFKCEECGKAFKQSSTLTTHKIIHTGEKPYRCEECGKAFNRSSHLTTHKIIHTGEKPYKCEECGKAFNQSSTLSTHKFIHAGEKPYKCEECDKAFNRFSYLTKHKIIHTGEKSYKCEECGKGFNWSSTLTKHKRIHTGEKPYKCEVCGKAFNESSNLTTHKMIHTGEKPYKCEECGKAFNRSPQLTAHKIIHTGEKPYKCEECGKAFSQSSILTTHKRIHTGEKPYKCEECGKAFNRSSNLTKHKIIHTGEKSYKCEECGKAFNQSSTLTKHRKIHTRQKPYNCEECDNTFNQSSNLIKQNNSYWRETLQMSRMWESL
T6 sequence (Q15555 whole entry, change not shown): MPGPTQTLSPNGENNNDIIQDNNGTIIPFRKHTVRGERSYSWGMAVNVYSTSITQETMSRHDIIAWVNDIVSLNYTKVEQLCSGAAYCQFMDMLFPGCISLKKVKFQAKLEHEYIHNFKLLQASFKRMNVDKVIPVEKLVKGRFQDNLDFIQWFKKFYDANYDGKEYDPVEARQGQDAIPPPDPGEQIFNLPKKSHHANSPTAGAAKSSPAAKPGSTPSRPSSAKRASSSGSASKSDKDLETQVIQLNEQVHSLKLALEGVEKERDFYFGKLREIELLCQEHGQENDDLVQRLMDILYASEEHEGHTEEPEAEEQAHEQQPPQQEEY
T7 sequence (P55082 19-362 limits assumed, change not shown): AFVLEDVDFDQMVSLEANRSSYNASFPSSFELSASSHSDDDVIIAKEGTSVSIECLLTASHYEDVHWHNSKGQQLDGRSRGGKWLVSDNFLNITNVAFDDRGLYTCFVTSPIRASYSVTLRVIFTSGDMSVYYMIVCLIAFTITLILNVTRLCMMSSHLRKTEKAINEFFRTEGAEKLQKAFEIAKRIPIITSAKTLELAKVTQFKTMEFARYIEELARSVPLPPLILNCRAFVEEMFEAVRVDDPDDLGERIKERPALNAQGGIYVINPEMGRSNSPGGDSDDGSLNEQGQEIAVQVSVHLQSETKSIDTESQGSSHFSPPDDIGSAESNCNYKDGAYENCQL
T3 sequence (O43809 2-227 limits assumed): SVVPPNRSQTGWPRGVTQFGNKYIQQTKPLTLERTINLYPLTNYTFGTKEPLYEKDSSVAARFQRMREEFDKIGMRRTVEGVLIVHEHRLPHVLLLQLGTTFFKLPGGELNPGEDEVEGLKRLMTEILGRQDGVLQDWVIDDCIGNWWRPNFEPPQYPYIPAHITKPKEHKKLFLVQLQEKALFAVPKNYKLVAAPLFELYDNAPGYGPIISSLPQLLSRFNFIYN

B1: TOVA1002 (antibody, V domains shown)
VH: QVQLVESGGGVVQPGRSLRLSCAASGFTFSNFAMHWVRQAPGKGLEWVVVISSDGSNKNYADSVKGRFTISRDNSKNTLYLQMNSLRAEDTAVYYCARDLGVGSTTYWGQGTLVTVSS
VL: SYVLTQPPSVSVAPGQTARITCGGNNIGSKSVHWYQQKPGQAPVLVVYDDSDRPSGIPERFSGSNSGNTATLTISRVEAGDEADYYCQVWDGYSDPLVFGGGTKLTVLG
notes: VH/VL tied via antigen in summary, not by name in this stretch
Take B1: in [1], the binding result is “binds”.

B2: TMEL1033 (antibody, V domains shown)
VH: PVQLQESGPGLVKPSETLSLTCTVSGGSVSSGSYYWSWIRQPPGKGLEWIGYIYYSGSTNYNPSLKSRVTISVDTSKNQFSLKLSSVTAADTAVYYCARDRGDYVTHWFDPWGQGTLVTVSS
VL: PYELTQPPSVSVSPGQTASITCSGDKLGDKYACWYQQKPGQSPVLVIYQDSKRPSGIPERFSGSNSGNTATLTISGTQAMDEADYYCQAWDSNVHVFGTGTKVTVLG
notes: as for B1
For the molecule B2, the binding result in experiment [2], in experiment [3] and in experiment [4] was “binds” in each case.

B3: TBLA1013 (antibody, V domains shown)
VH: EVQLLESGGGLVQPGGSLTLSCVGSRFTFSSYAMNWVRQSPGRGLEWVASISATTGSTYYTDSVEGRFTISRDNSRDTLYLQMNSLRADDTALYYCVRSFVGAVPAYPNFDFWGPGTLVTVSS
VL: PSGLTQPPSASGTPGQRVTMSCSGSSSNIGRNYVYWYQQLPGAAPKLLIYRDNQRPSGVPDRFSGSKSGTSASLAISGLRSEDEADYYCAAWDDNVSGPGFGAGTRLTVLG
notes: VH/VL only
For B3, the binding result in [5] is given as “binds”.

B4: TMES1004 (antibody, V domains shown)
VH: QVQLVQSGAEVKKPGASVKISCKASGYTFTSHAIHWVRQAPGQTFEWLGWINPVNGVTKYSQTFQDRVTIVRDKSATTTYMDLSGLTFEDTAMYYCARVLDFYGSSVLDYWGQGTLVTVSS
VL: QSALTQPASVSGSPGQSITISCTGTSSDIGTYNLVSWYQQRPGKAPKLIIYDVIKRPSGISDRFSGSKSDNMASLTISGLQAEDEAHYYCCSYRSSTAPVVFGGGTKVTVL
notes: as for B1
As for B4, the binding result in experiment [6] is recorded as “binds”.

B5: TBRE1002 (antibody, V domains shown)
VH: QVQLVESGGGVVQPGGSLRLSCGASGFAFSSNGMHWVRQAPGKGLEWVAFIHYDGRNKHYTDSVKGRFAISVDDSKTTLYLQMSSLKTEDTAVYYCVKDSRVTGQSSGYIFDSWGQGTLVTVSS
VL: ETVMTQSPATLSVSPGDRATLSCRASQNVNFNLAWYQQKPGQAPRLLIYDASTRATGIPARFSGSASGTEFTLTINSLQSEDFAVYYCQQYNNWWTFGQGTKLEIKR
notes: VH/VL only
In the case of B5, the binding result in experiment [7] was “binds”.

B6: TMEL1037 (antibody, V domains shown)
VH: PLQLQESGPGLVKPSETLSLTCTVSGGSISSSSYYWGWIRQSPGKGLEWMGSIYYSGSTYYNPSLKSRVTISVDTSKNQFSLNLSSVTAADTAVYYCARHDYRNYFDYWGQGTLVTVSS
VL: not shown
notes: as for B1
For the molecule B6, the binding result in experiment [8] is reported as “binds”.

B7: TMEL1035 (antibody, V domains shown)
VH: QVQLVESGGGVVQPGRSLRLSCAASGFTFSSYAMHWVRQAPGKGLEWVAVISYDGSNKYYADSVKGRFTISRDNSKNTLYLQMNSLRAEDTAVYYCASPIAVAAPFAYWGQGTLVTVSS
VL: VSSELTQDPAVSVALGQTVRITCQGDSLRSYYASWYQQKPGQAPVLVIYGKNNRPSGIPDRFSGSSSGNTASLTITGAQAEDEADYYCNSRDSSGNLYVFGTGTKVTVLG
notes: as for B1
Consider B7, for which the binding result in experiment [9] and in [10] was “binds” in each case.

B8: TMEL1040 (antibody, V domains shown)
VH: EVQLVQSGAEVKKPGESLKISCKGSGYSFTTYWIAWVRQMPGKGLEWMGIIYPADSDTRYSPSFQGQVTMSADQSINTAYLQWSSLKASDTAMYYCARRGREFDYWGQGTLLTVSS
VL: QSALTQPASVSGSPGQSITISCTGTSSDVGSYNLVSWYQQHPGKAPKLMIYEGSKRPSGVSNRFSGSKSGNTASLTISGLQAEDEADYYCCSYAGSSTPWVFGGGTKLTVL
notes: as for B1
B8: the binding result in experiment [11] is given as “binds”.

B9: TMEL1041 (antibody, V domains shown)
VH: EVQLLESGGGLVQPGGSLRLSCAASGFTFRIYAMSWVRQAPGKGLEWVSAISYSGNTTYYADSVKGRFTISRDNSKNTLYLQINNLRAEDTAIYYCAIQEKRELQLRRELDNYWGQGTLVTVSS
VL: PYELTQPPSVSLSPGQTARITCSGDALPKKYAYWYQQKSGQAPVLVIYEDSKRPSGIPERFSGSSSGTTATLTISGAQVDDEGDYYCYSPDSSGNVWVFGGGTKLTVLG
notes: as for B1
Turning to B9, the binding result in experiment [12] and in [13] was “binds” each time.

B10: TMES1002 (antibody, V domains shown)
VH: QVQVVESGGGLVKPGGSLRLSCAVSGLDFRDYYVNWIRQAPGKGLEWLSYITSPGGHTSYSDSVKGRFTISRDNAKNSVYLQMDSLTVEDTAVYFCAIKEGYGLSDWGQGTLVTVSS
VL: EIVLTQSPVTLSLSPGERATLSCRASQSVSSSYIAWYQQKPGQAPRLLIYGASTRATGIPDRFSGSGSGTDFTLTISRLEPEDCAVFYCQQYGSSHYTFGQGTKLEIKR
notes: as for B1
For the molecule B10, the binding result in experiment [14] and in experiment [15] was “binds” each time.

B11: TMEL1032 (antibody, V domains shown)
VH: QVQLVQSGAEVRKPGASVKVSCKASGYTFTTYYIHWVRQAPGQGLEWMGLINPNGGTTNYAQKFQGRLSMTTDTSTNTVYMELSSLRSEDTAVYYCARKLMSGIVSRGWFDPWGQGTLVTVSS
VL: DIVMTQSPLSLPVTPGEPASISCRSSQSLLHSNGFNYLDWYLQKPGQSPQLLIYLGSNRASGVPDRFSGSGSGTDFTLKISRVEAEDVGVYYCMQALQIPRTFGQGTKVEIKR
notes: as for B1
For B11, the binding result in experiment [16] and in experiment [17] was “binds” throughout.
